Here are results for twelve variants from the FLAb antibody collection (doi:10.7554/elife.23156).

First the molecules themselves.
B1: scFv; the commonest letter at each place (parent)
chain 1: EVKLDETGGGLVQPGRPMKLSCVASGFTFSDYWMNWVRQSPEKGLEWVAQIRNKPYNYETYYSDSVKGRFTISRDDSKSSVYLQMNNLRVEDMGIYYCTGSYYGMDYWGQGTSVTVS
chain 2: DVVMTQTPLSLPVSLGDQASISCRSSQSLVHSNGNTYLRWYLQKPGQSPKVLIYKVSNRFSGVPDRFSGSGSGTDFTLKISRVEAEDLGVYFCSQSTHVPWTFGGGTKLEIK

The data set “fluorescein” covers variants of B1. In words: Kd (Tite-Seq). Conditions: with fluorescein; format: scFv 4-4-20, heavy + light.
The variants in data set [1] derive from B1. In words: yeast surface expression (ratio to wild type); higher = more expressed. Conditions: format: scFv 4-4-20, heavy + light.

Some results are limits rather than exact numbers.

Broadly, the Kd is the constant that tells how readily two partners part at equilibrium. With chain 1 EVKLDETGGGLVQPGRPMKLSCVASGFTFSDYWMNWVRQSPEKGLEWVAQIRNKPYNYETYYSDSVKGRFTISRDDSKSSVYLQMNNLRVEDMGIYYCTRSYYSMDYWGQGTSVTVS chain 2 DVVMTQTPLSLPVSLGDQASISCRSSQSLVHSNGNTYLRWYLQKPGQSPKVLIYKVSNRFSGVPDRFSGSGSGTDFTLKISRVEAEDLGVYFCSQSTHVPWTFGGGTKLEIK [chain 1 G100R G104S], the Kd with fluorescein is no less than 10000 nM. Moreover, in data set [1], the yeast surface expression was 0.28.

As for chain 1 EVKLDETGGGLVQPGRPMKLSCVASGFTFSDYWMNWVRQSPEKGLEWVAQIRNKPYNYETYYSDSVKGRFTISRDDSKSSVYLQMNNLRVEDMGIYYCTGSEIGMDYWGQGTSVTVS chain 2 DVVMTQTPLSLPVSLGDQASISCRSSQSLVHSNGNTYLRWYLQKPGQSPKVLIYKVSNRFSGVPDRFSGSGSGTDFTLKISRVEAEDLGVYFCSQSTHVPWTFGGGTKLEIK [chain 1 Y102E Y103I], in the data set with fluorescein, the dissociation constant Kd is no less than 10000 nM. For the same variant, in data set [1], the yeast surface expression worked out at 0.862.

Regarding chain 1 EVKLDETGGGLVQPGRPMKLSCVASGFTFSDYWMNWVRQSPEKGLEWVAQIRNKPYNYETYYSDSVKGRFTISRDDSKSSVYLQMNNLRVEDMGIYYCTGSYFGMDYQGQGTSVTVS chain 2 DVVMTQTPLSLPVSLGDQASISCRSSQSLVHSNGNTYLRWYLQKPGQSPKVLIYKVSNRFSGVPDRFSGSGSGTDFTLKISRVEAEDLGVYFCSQSTHVPWTFGGGTKLEIK [chain 1 Y103F W108Q], the Kd in the data set with fluorescein came out at 6.72 nM. In data set [1], the yeast surface expression is 0.382.

Take chain 1 EVKLDETGGGLVQPGRPMKLSCVASGFCPSDYWMNWVRQSPEKGLEWVAQIRNKPYNYETYYSDSVKGRFTISRDDSKSSVYLQMNNLRVEDMGIYYCTGSYYGMDYWGQGTSVTVS chain 2 DVVMTQTPLSLPVSLGDQASISCRSSQSLVHSNGNTYLRWYLQKPGQSPKVLIYKVSNRFSGVPDRFSGSGSGTDFTLKISRVEAEDLGVYFCSQSTHVPWTFGGGTKLEIK [chain 1 T28C F29P]: the Kd in the data set with fluorescein is no less than 10000 nM. In data set [1], the yeast surface expression was determined as 0.637.

For the variant chain 1 EVKLDETGGGLVQPGRPMKLSCVASGFTFSDYWMNWVRQSPEKGLEWVAQIRNKPYNYETYYSDSVKGRFTISRDDSKSSVYLQMNNLRVEDMGIYYCTGSYYGGQYWGQGTSVTVS chain 2 DVVMTQTPLSLPVSLGDQASISCRSSQSLVHSNGNTYLRWYLQKPGQSPKVLIYKVSNRFSGVPDRFSGSGSGTDFTLKISRVEAEDLGVYFCSQSTHVPWTFGGGTKLEIK [chain 1 M105G D106Q], the dissociation constant Kd with fluorescein is no less than 10000 nM. Besides, in data set [1], the yeast surface expression is 0.514.

For the variant chain 1 EVKLDETGGGLVQPGRPMKLSCVASGFTFSDYWMNWMRQSPEKGLEWVAQIRNKPYNYETYYSDSVKGRFTISRDDSKSSVYLQMNNLRVEDMGIYYCTGSYYGMDYWGQGTSVTVS chain 2 DVVMTQTPLSLPVSLGDQASISCRSSQSLVHSNGNTYLRWYLQKPGQSPKVLIYKVSNRFSGVPDRFSGSGSGTDFTLKISRVEAEDLGVYFCSQSTHVPWTFGGGTKLEIK [chain 1 V37M], the dissociation constant (Kd) with fluorescein is 0.333 nM. In addition, in data set [1], the yeast surface expression amounted to 0.958.

On to chain 1 EVKLDETGGGLVQPGRPMKLSCVASGFTFSDYWINMVRQSPEKGLEWVAQIRNKPYNYETYYSDSVKGRFTISRDDSKSSVYLQMNNLRVEDMGIYYCTGSYYGMDYWGQGTSVTVS chain 2 DVVMTQTPLSLPVSLGDQASISCRSSQSLVHSNGNTYLRWYLQKPGQSPKVLIYKVSNRFSGVPDRFSGSGSGTDFTLKISRVEAEDLGVYFCSQSTHVPWTFGGGTKLEIK [chain 1 M34I W36M], for which the Kd with fluorescein was determined as 712 nM. For the same variant, the yeast surface expression in data set [1] was 0.783.

For chain 1 EVKLDETGGGLVQPGRPMKLSCVASGFTFSQYWMNWVRQSPEKGLEWVAQIRNKPYNYETYYSDSVKGRFTISRDDSKSSVYLQMNNLRVEDMGIYYCTGSYYGMDYWGQGTSVTVS chain 2 DVVMTQTPLSLPVSLGDQASISCRSSQSLVHSNGNTYLRWYLQKPGQSPKVLIYKVSNRFSGVPDRFSGSGSGTDFTLKISRVEAEDLGVYFCSQSTHVPWTFGGGTKLEIK [chain 1 D31Q], the Kd in the data set with fluorescein turned out to be 2.58 nM. The yeast surface expression in data set [1] came out at 0.877.

For chain 1 EVKLDETGGGLVQPGRPMKLSCVASGFTFSAYWMNWVRQSPEKGLEWVAQIRNKPYNYETYYSDSVKGRFTISRDDSKSSVYLQMNNLRVEDMGIYYCTGSYYGMDYWGQGTSVTVS chain 2 DVVMTQTPLSLPVSLGDQASISCRSSQSLVHSNGNTYLRWYLQKPGQSPKVLIYKVSNRFSGVPDRFSGSGSGTDFTLKISRVEAEDLGVYFCSQSTHVPWTFGGGTKLEIK [chain 1 D31A], the equilibrium dissociation constant (Kd) in the data set with fluorescein was 3.43 nM. Moreover, the yeast surface expression in data set [1] is 0.772.

As to chain 1 EVKLDETGGGLVQPGRPMKLSCVASGFTFSDGAMNWVRQSPEKGLEWVAQIRNKPYNYETYYSDSVKGRFTISRDDSKSSVYLQMNNLRVEDMGIYYCTGSYYGMDYWGQGTSVTVS chain 2 DVVMTQTPLSLPVSLGDQASISCRSSQSLVHSNGNTYLRWYLQKPGQSPKVLIYKVSNRFSGVPDRFSGSGSGTDFTLKISRVEAEDLGVYFCSQSTHVPWTFGGGTKLEIK [chain 1 Y32G W33A], the Kd with fluorescein is no less than 10000 nM. Also, the yeast surface expression in data set [1] turned out to be 0.708.

With chain 1 EVKLDETGGGLVQPGRPMKLSCVASGFTFWVYWMNWVRQSPEKGLEWVAQIRNKPYNYETYYSDSVKGRFTISRDDSKSSVYLQMNNLRVEDMGIYYCTGSYYGMDYWGQGTSVTVS chain 2 DVVMTQTPLSLPVSLGDQASISCRSSQSLVHSNGNTYLRWYLQKPGQSPKVLIYKVSNRFSGVPDRFSGSGSGTDFTLKISRVEAEDLGVYFCSQSTHVPWTFGGGTKLEIK [chain 1 S30W D31V], in the data set with fluorescein, the Kd was no less than 10000 nM. Also, the yeast surface expression in data set [1] was determined as 0.463.

In the case of chain 1 EVKLDETGGGLVQPGRPMKLSCVASGFTFSDYWMNWVRQSPEKGLEWVAQIRNKPYNYETYYSDSVKGRFTISRDDSKSSVYLQMNNLRVEDMGIYYCTHSYYGMDYDGQGTSVTVS chain 2 DVVMTQTPLSLPVSLGDQASISCRSSQSLVHSNGNTYLRWYLQKPGQSPKVLIYKVSNRFSGVPDRFSGSGSGTDFTLKISRVEAEDLGVYFCSQSTHVPWTFGGGTKLEIK [chain 1 G100H W108D], the Kd in the data set with fluorescein was no less than 10000 nM. For the same variant, the yeast surface expression in data set [1] was 0.321.
